{
  "source": "paper PMC10275583",
  "about": "“A symmetry mismatch unraveled: How phage HK97 scaffold flexibly accommodates a 12-fold pore at a 5-fold viral capsid vertex” (Science Advances, 2023)",
  "molecular_target": "the molecule itself",
  "experiment": "cryo-EM structure; HK97 Prohead I particles with portal, purified from E. coli co-expressing genes 3 and 5; buffer 100 mM KCl, 20 mM potassium phosphate pH 7.5; icosahedral map 3.6 A, focused reconstructions of penton vertex (C5, 3.0 A) and portal vertex (no symmetry 3.6 A, C12 3.2 A)",
  "data": [
    {"protein": "bacteriophage HK97 portal protein (natural protein, UniProt P49859 1-424, looked up, Portal protein of bacteriophage HK97, wild-type gene 3; 50 N-terminal residues are not visible in the density map and are missing from the model; Dodecamer at one vertex of Prohead I; also called gene 3 product; dodecameric portal complex; source: E. coli BL21 (DE3), plasmid pVPB expressing HK97 genes 3 and 5; purified within Prohead I particles (PEG precipitation, ultracentrifugation, glycerol …)) MEEPKYTIDLRTNNGWWARLKSWFVGGRLVTPNQGSQTGPVSAHGYLGDSSINDERILQISTVWRCVSLISTLTACLPLDVFETDQNDNRKKVDLSNPLARLLRYSPNQYMTAQEFREAMTMQLCFYGNAYALVDRNSAGDVISLLPLQSANMDVKLVGKKVVYRYQRDSEYADFSQKEIFHLKGFGFTGLVGLSPIAFACKSAGVAVAMEDQQRDFFANGAKSPQILSTGEKVLTEQQRSQVEENFKEIAGGPVKKRLWILEAGFSTSAIGVTPQDAEMMASRKFQVSELARFFGVPPHLVGDVEKSTSWGSGIEQQNLGFLQYTLQPYISRWENSIQRWLIPSKDVGRLHAEHNLDGLLRGDSASRAAFMKAMGESGLRTINEMRRTDNMPPLPGGDVAMRQAQYVPITDLGTNKEPRNNGA", "values": [
      {"measurement": "stoichiometry N", "result": 12}
    ]}
  ]
}
